{
  "source": "patent US20190382463A1",
  "target": "human type 1 insulin-like growth factor receptor (human) (UniProt P08069)",
  "experiment": "competitive displacement assay, plate capture of solubilized receptor (tracer for IGF-1R not stated)",
  "data": [
    {"substance": "KP-insulin ([Lys^B28, Pro^B29]-insulin, insulin Lispro) (ligand; other documents disagree on this pair)", "values": [
      {"measurement": "Kd", "value": 5, "unit": "nM"}
    ]}
  ]
}
